For one molecule, stoichiometry N results are on record in publication PMC11148119.

The target of this experiment is T1, Full-length rat TRPV2 with a C-terminal 1D4 tag, reconstituted into MSP2N2 nanodiscs (rat), Q9WUD2.
T1 chain: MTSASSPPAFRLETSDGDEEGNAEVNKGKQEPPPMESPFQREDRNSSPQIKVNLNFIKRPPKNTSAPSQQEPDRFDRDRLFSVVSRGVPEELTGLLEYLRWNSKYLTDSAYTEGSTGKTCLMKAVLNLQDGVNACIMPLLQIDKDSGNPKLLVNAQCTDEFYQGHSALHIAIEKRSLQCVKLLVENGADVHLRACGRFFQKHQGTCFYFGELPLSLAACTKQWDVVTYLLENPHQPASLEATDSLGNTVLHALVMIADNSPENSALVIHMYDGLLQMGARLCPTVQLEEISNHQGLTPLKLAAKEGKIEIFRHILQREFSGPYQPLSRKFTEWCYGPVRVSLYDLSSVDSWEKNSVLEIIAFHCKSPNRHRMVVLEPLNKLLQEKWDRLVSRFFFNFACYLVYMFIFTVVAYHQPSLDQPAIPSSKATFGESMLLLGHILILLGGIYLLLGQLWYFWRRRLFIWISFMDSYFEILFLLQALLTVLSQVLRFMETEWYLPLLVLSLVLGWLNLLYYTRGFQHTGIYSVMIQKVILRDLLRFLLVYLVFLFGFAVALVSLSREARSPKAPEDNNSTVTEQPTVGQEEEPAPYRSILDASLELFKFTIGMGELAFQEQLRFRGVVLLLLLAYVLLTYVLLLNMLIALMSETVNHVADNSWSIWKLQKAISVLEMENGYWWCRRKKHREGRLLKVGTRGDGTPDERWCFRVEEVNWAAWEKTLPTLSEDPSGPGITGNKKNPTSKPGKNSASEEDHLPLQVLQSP
Kind of experiment: cryo-EM structure; rTRPV2 in MSP2N2/soy polar lipid nanodiscs; apo dataset at pH 8 (states Apo1, Apo2, Apo3) and dataset with 30 mM sodium acetate at final pH 5.0 (TRPV2_HOAc); grids prepared at 4 °C; maps refined with C4 symmetry. The note with it: remark: other sources report otherwise.

B1: Full-length rat TRPV2 with a C-terminal 1D4 tag, reconstituted into MSP2N2 nanodiscs, Q9WUD2 1-761 (natural protein)
chain: T1 chain
Broadly, the stoichiometry N is a count of units in the complex or per binding partner. In turn, B1 showed a stoichiometry N of 4.
